Measurements as given in patent publication US20180360932A1 (OPKO BIOLOGICS, published 2018).

Biological target: Tissue factor (TF), P13726
Assay: cell-based or functional assay

Tissue factor (TF), P13726, sequence (P13726 33-295): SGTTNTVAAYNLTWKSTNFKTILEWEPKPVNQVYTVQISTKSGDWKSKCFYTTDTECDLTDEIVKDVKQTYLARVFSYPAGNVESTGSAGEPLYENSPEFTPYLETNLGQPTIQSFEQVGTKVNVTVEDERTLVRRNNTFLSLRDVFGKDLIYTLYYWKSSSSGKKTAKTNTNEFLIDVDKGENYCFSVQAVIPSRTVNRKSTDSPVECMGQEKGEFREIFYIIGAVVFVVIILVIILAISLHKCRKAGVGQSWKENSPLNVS

B1: MOD-5014 (FVIIa-CTP3; activated Factor VII-CTP-CTP-CTP), P08709 61-212 (enzyme)
chain 1: ANAFLEELRPGSLERECKEEQCSFEEAREIFKDAERTKLFWISYSDGDQCASSPCQNGGSCKDQLQSYICFCLPAFEGRNCETHKDDQLICVNENGGCEQYCSDHTGTKRSCRCHEGYSLLADGVSCTPTVEYPCGKIPILEKRNASKPQGR
chain 2: IVGGKVCPKGECPWQVLLLVNGAQLCGGTLINTIWVVSAAHCFDKIKNWRNLIAVLGEHDLSEHDGDEQSRRVAQVIIPSTYVPGTTNHDIALLRLHQPVVLTDHVVPLCLPERTFSERTLAFVRFSLVSGWGQLLDRGATALELMVLNVPRLMTQDCLQQSRKVGDSPNITEYMFCAGYSDGSKDSCKGDSGGPHATHYRGTWYLTGIVSWGQGCATVGHFGVYTRVSQYIEWLQKLMRSEPRPGVLLRAPFPSSSSKAPPPSLPSPSRLPGPSDTPILPQSSSSKAPPPSLPSPSRLPGPSDTPILPQSSSSKAPPPSLPSPSRLPGPSDTPILPQ
modifications: here or on the partner: CTP units may be O-glycosylated (sites not given); gamma-carboxyglutamic acid (Gla) residues in the N-terminal region (positions not given)
ETP (TG; MOD-5014 1.25 ug/ml + TF 0.5 pM; run 1): 264
ETP (TG; MOD-5014 1.25 ug/ml + TF 1 pM; run 1): 484
ETP (TG; MOD-5014 1.25 ug/ml + TF 2.5 pM; run 1): 1120
ETP (TG; MOD-5014 1.25 ug/ml + TF 5 pM; run 1): 1600
ETP (TG; MOD-5014 2.5 ug/ml + TF 0.5 pM; run 1): 245
ETP (TG; MOD-5014 2.5 ug/ml + TF 0.5 pM; run 2): 317
ETP (TG; MOD-5014 2.5 ug/ml + TF 1 pM; run 1): 448
ETP (TG; MOD-5014 2.5 ug/ml + TF 1 pM; run 2): 760
ETP (TG; MOD-5014 2.5 ug/ml + TF 2.5 pM; run 1): 1030
ETP (TG; MOD-5014 2.5 ug/ml + TF 2.5 pM; run 2): 1110
ETP (TG; MOD-5014 2.5 ug/ml + TF 5 pM; run 1): 1550
ETP (TG; MOD-5014 2.5 ug/ml + TF 5 pM; run 2): 1600
ETP (TG; MOD-5014 5 ug/ml + TF 0.5 pM; run 1): 344
ETP (TG; MOD-5014 5 ug/ml + TF 1 pM; run 1): 490
ETP (TG; MOD-5014 5 ug/ml + TF 2.5 pM; run 1): 982
ETP (TG; MOD-5014 5 ug/ml + TF 5 pM; run 1): 1510
ETP (TG; MOD-5014 10 ug/ml + TF 0.5 pM; run 2): 460
ETP (TG; MOD-5014 10 ug/ml + TF 1 pM; run 2): 754
ETP (TG; MOD-5014 10 ug/ml + TF 2.5 pM; run 2): 1060
ETP (TG; MOD-5014 10 ug/ml + TF 5 pM; run 2): 1600
ETP; thrombin generation in severe hemophilia A pooled plasma, MOD-5014 5 ug/kg (FIG. 83), TF 0.5 pM, run #2: 354
ETP; thrombin generation in severe hemophilia A pooled plasma, MOD-5014 5 ug/kg (FIG. 83), TF 1 pM, run #2: 754
ETP; thrombin generation in severe hemophilia A pooled plasma, MOD-5014 5 ug/kg (FIG. 83), TF 2.5 pM, run #2: 1010
ETP; thrombin generation in severe hemophilia A pooled plasma, MOD-5014 5 ug/kg (FIG. 83), TF 5 pM, run #2: 1530
Lag time (TG; MOD-5014 1.25 ug/ml + TF 0.5 pM; run 1): 4.67 min
Lag time (TG; MOD-5014 1.25 ug/ml + TF 1 pM; run 1): 2.67 min
Lag time (TG; MOD-5014 1.25 ug/ml + TF 2.5 pM; run 1): 2.33 min
Lag time (TG; MOD-5014 1.25 ug/ml + TF 5 pM; run 1): 1.33 min
Lag time (TG; MOD-5014 2.5 ug/ml + TF 0.5 pM; run 1): 6.67 min
Lag time (TG; MOD-5014 2.5 ug/ml + TF 1 pM; run 1): 3 min
Lag time (TG; MOD-5014 2.5 ug/ml + TF 1 pM; run 2): 3.33 min
Lag time (TG; MOD-5014 2.5 ug/ml + TF 2.5 pM; run 1): 2.63 min
Lag time (TG; MOD-5014 2.5 ug/ml + TF 2.5 pM; run 2): 2.67 min
Lag time (TG; MOD-5014 2.5 ug/ml + TF 5 pM; run 1): 3.67 min
Lag time (TG; MOD-5014 2.5 ug/ml + TF 5 pM; run 2): 1.67 min
Lag time (TG; MOD-5014 5 ug/ml + TF 0.5 pM; run 1): 5.67 min
Lag time (TG; MOD-5014 5 ug/ml + TF 1 pM; run 1): 3 min
Lag time (TG; MOD-5014 5 ug/ml + TF 2.5 pM; run 1): 3 min
Lag time (TG; MOD-5014 5 ug/ml + TF 5 pM; run 1): 1.67 min
Lag time (TG; MOD-5014 10 ug/ml + TF 0.5 pM; run 2): 8.67 min
Lag time (TG; MOD-5014 10 ug/ml + TF 2.5 pM; run 2): 3 min
Lag time (TG; MOD-5014 10 ug/ml + TF 5 pM; run 2): 1.67 min
Lag time; thrombin generation in severe hemophilia A pooled plasma, MOD-5014 5 ug/kg (FIG. 83), TF 0.5 pM, run #2: 7
Lag time; thrombin generation in severe hemophilia A pooled plasma, MOD-5014 5 ug/kg (FIG. 83), TF 1 pM, run #2: 3.67
Lag time; thrombin generation in severe hemophilia A pooled plasma, MOD-5014 5 ug/kg (FIG. 83), TF 2.5 pM, run #2: 2.67
Lag time; thrombin generation in severe hemophilia A pooled plasma, MOD-5014 5 ug/kg (FIG. 83), TF 5 pM, run #2: 2
Peak (TG; MOD-5014 1.25 ug/ml + TF 0.5 pM; run 1): 9.04
Peak (TG; MOD-5014 1.25 ug/ml + TF 1 pM; run 1): 27.4
Peak (TG; MOD-5014 1.25 ug/ml + TF 2.5 pM; run 1): 99.1
Peak (TG; MOD-5014 1.25 ug/ml + TF 5 pM; run 1): 231
Peak (TG; MOD-5014 2.5 ug/ml + TF 0.5 pM; run 1): 10.3
Peak (TG; MOD-5014 2.5 ug/ml + TF 0.5 pM; run 2): 11.2
Peak (TG; MOD-5014 2.5 ug/ml + TF 1 pM; run 1): 22.6
